Experimental data reported in ChEMBL document CHEMBL1250451, “Mechanistic insights into a Ca2+-dependent family of alpha-mannosidases in a human gut symbiont” (Nat Chem Biol, 2010).

Experiments:
Assay type in all cases: protein assay; call rule not given here
[1] = substrate: O=[N+]([O-])c1ccc(O[C@H]2O[C@H](CO)[C@@H](O)[C@H](O)[C@@H]2O)cc1; test: (§1) Activity of Bacteroides thetaiotaomicron GH92 alpha-mannosidase 3990 Q602A mutant assessed as as mannose release after 16 hrs by HPLC relative to wild type enzyme
[2] = substrate: OC[C@H]1O[C@H](O[C@H]2[C@@H](O)[C@H](O)[C@@H](CO)O[C@@H]2O)[C@@H](O)[C@@H](O)[C@@H]1O; test: as §1
[3] = substrate: O=[N+]([O-])c1ccc(O[C@H]2O[C@H](CO)[C@@H](O)[C@H](O)[C@@H]2O)cc1; test: (§2) Ratio of Kcat to Km for Bacteroides thetaiotaomicron GH92 alpha-mannosidase 3990 Q602A mutant assessed as as mannose release after 16 hrs by HPLC relative to wild type enzyme
[4] = substrate: OC[C@H]1O[C@H](O[C@H]2[C@@H](O)[C@H](O)[C@@H](CO)O[C@@H]2O)[C@@H](O)[C@@H](O)[C@@H]1O; test: as §2
[5] = substrate: O=[N+]([O-])c1ccc(O[C@H]2O[C@H](CO)[C@@H](O)[C@H](O)[C@@H]2O)c([N+](=O)[O-])c1; test: as §2
[6] = substrate: O=[N+]([O-])c1ccc(O[C@H]2O[C@H](CO)[C@@H](O)[C@H](O)[C@@H]2O)cc1; test: (§3) Activity of Bacteroides thetaiotaomicron GH92 alpha-mannosidase 3990 E533A mutant assessed as as mannose release after 16 hrs by HPLC relative to wild type enzyme
[7] = substrate: OC[C@H]1O[C@H](O[C@H]2[C@@H](O)[C@H](O)[C@@H](CO)O[C@@H]2O)[C@@H](O)[C@@H](O)[C@@H]1O; test: as §3
[8] = substrate: O=[N+]([O-])c1ccc(O[C@H]2O[C@H](CO)[C@@H](O)[C@H](O)[C@@H]2O)cc1; test: (§4) Ratio of Kcat to Km for Bacteroides thetaiotaomicron GH92 alpha-mannosidase 3990 E533A mutant assessed as as mannose release after 16 hrs by HPLC relative to wild type enzyme
[9] = substrate: OC[C@H]1O[C@H](O[C@H]2[C@@H](O)[C@H](O)[C@@H](CO)O[C@@H]2O)[C@@H](O)[C@@H](O)[C@@H]1O; test: as §4
[10] = substrate: O=[N+]([O-])c1ccc(O[C@H]2O[C@H](CO)[C@@H](O)[C@H](O)[C@@H]2O)c([N+](=O)[O-])c1; test: as §4
[11] = substrate: O=[N+]([O-])c1ccc(O[C@H]2O[C@H](CO)[C@@H](O)[C@H](O)[C@@H]2O)cc1; test: (§5) Ratio of Kcat to Km for Bacteroides thetaiotaomicron GH92 alpha-mannosidase 3990 E585A mutant assessed as as mannose release after 16 hrs by HPLC relative to wild type enzyme
[12] = substrate: OC[C@H]1O[C@H](O[C@H]2[C@@H](O)[C@H](O)[C@@H](CO)O[C@@H]2O)[C@@H](O)[C@@H](O)[C@@H]1O; test: as §5
[13] = substrate: O=[N+]([O-])c1ccc(O[C@H]2O[C@H](CO)[C@@H](O)[C@H](O)[C@@H]2O)c([N+](=O)[O-])c1; test: as §5
[14] = substrate: O=[N+]([O-])c1ccc(O[C@H]2O[C@H](CO)[C@@H](O)[C@H](O)[C@@H]2O)cc1; test: (§6) Activity of Bacteroides thetaiotaomicron GH92 alpha-mannosidase 3990 E585A mutant assessed as as mannose release after 16 hrs by HPLC relative to wild type enzyme
[15] = substrate: OC[C@H]1O[C@H](O[C@H]2[C@@H](O)[C@H](O)[C@@H](CO)O[C@@H]2O)[C@@H](O)[C@@H](O)[C@@H]1O; test: as §6

B1: Alpha-1,2-mannosidase (BT_3990) (Bacteroides thetaiotaomicron), Q8A0N1 Q602A (protein)
chain: MKRLLLIACILNCTLLSQAKDWTQYVNPLMGSQSTFELSTGNTYPAIARPWGMNFWTPQTGKMGDGWQYTYTANKIRGFKQTHQPSPWINDYGQFSIMPIVGQPVFDEEKRASWFAHKGEVATPYYYKVYLAEHDIVTEMTPTERAVLFRFTFPENDHSYVVVDAFDKGSYIKIIPEENKIIGYTTRNSGGVPENFKNYFIIEFDKPFTYKATVENGNLQENVAEQTTDHAGAIIGFKTRKGEQVNARIASSFISFEQAAANMNELGKDNIEQLAQKGKDAWNQVLGKIEVEGGNLDQYRTFYSCLYRSLLFPRKFYELDANGQPIHYSPYNGQVLPGYMFTDTGFWDTFRCLFPLLNLMYPSVNKEMQEGLINTYLESGFFPEWASPGHRGCMVGNNSASILVDAYMKGVKVDDIKTLYEGLIHGTENVHPEVSSTGRLGYEYYNKLGYVPYDVKINENAARTLEYAYDDWCIYRLAKELKRPKKEISLFAKRAMNYKNLFDKESKLMRGRNEDGTFQSPFSPLKWGDAFTEGNSWHYTWSVFHDPQGLIDLMGGKEMFVTMMDSVFAVPPIFDDSYYGQVIHEIREMTVMNMGNYAHGNAPIQHMIYLYDYAGQPWKAQYWLRQVMDRMYTPGPDGYCGDEDNGQTSAWYVFSALGFYPVCPGTDEYVMGTPLFKKATLHFENGNSLVIDAPNNSTENFYIDSMSFNGADHTKNYLRHEDLFKGGTIKVDMSNRPNLNRGTKEEDMPYSFSKE
Km [1]: 6.6 mM | kcat [1]: 0.00233 s⁻¹ | Km [2]: 16 mM | kcat [2]: 6 s⁻¹ | kcat/Km [3]: 0.35 M⁻¹ s⁻¹ | kcat/Km [4]: 383 M⁻¹ s⁻¹ | kcat/Km [5]: 20 M⁻¹ s⁻¹

B2: Alpha-1,2-mannosidase (BT_3990) (Bacteroides thetaiotaomicron), Q8A0N1 E533A (protein)
chain: MKRLLLIACILNCTLLSQAKDWTQYVNPLMGSQSTFELSTGNTYPAIARPWGMNFWTPQTGKMGDGWQYTYTANKIRGFKQTHQPSPWINDYGQFSIMPIVGQPVFDEEKRASWFAHKGEVATPYYYKVYLAEHDIVTEMTPTERAVLFRFTFPENDHSYVVVDAFDKGSYIKIIPEENKIIGYTTRNSGGVPENFKNYFIIEFDKPFTYKATVENGNLQENVAEQTTDHAGAIIGFKTRKGEQVNARIASSFISFEQAAANMNELGKDNIEQLAQKGKDAWNQVLGKIEVEGGNLDQYRTFYSCLYRSLLFPRKFYELDANGQPIHYSPYNGQVLPGYMFTDTGFWDTFRCLFPLLNLMYPSVNKEMQEGLINTYLESGFFPEWASPGHRGCMVGNNSASILVDAYMKGVKVDDIKTLYEGLIHGTENVHPEVSSTGRLGYEYYNKLGYVPYDVKINENAARTLEYAYDDWCIYRLAKELKRPKKEISLFAKRAMNYKNLFDKESKLMRGRNEDGTFQSPFSPLKWGDAFTAGNSWHYTWSVFHDPQGLIDLMGGKEMFVTMMDSVFAVPPIFDDSYYGQVIHEIREMTVMNMGNYAHGNQPIQHMIYLYDYAGQPWKAQYWLRQVMDRMYTPGPDGYCGDEDNGQTSAWYVFSALGFYPVCPGTDEYVMGTPLFKKATLHFENGNSLVIDAPNNSTENFYIDSMSFNGADHTKNYLRHEDLFKGGTIKVDMSNRPNLNRGTKEEDMPYSFSKE
Km [6]: 9.3 mM | kcat [6]: 0.00333 s⁻¹ | Km [7]: 1.4 mM | kcat [7]: 0.00433 s⁻¹ | kcat/Km [8]: 0.35 M⁻¹ s⁻¹ | kcat/Km [9]: 3 M⁻¹ s⁻¹ | kcat/Km [10]: 6000 M⁻¹ s⁻¹

B3: Alpha-1,2-mannosidase (BT_3990) (Bacteroides thetaiotaomicron), Q8A0N1 E585A (protein)
chain: MKRLLLIACILNCTLLSQAKDWTQYVNPLMGSQSTFELSTGNTYPAIARPWGMNFWTPQTGKMGDGWQYTYTANKIRGFKQTHQPSPWINDYGQFSIMPIVGQPVFDEEKRASWFAHKGEVATPYYYKVYLAEHDIVTEMTPTERAVLFRFTFPENDHSYVVVDAFDKGSYIKIIPEENKIIGYTTRNSGGVPENFKNYFIIEFDKPFTYKATVENGNLQENVAEQTTDHAGAIIGFKTRKGEQVNARIASSFISFEQAAANMNELGKDNIEQLAQKGKDAWNQVLGKIEVEGGNLDQYRTFYSCLYRSLLFPRKFYELDANGQPIHYSPYNGQVLPGYMFTDTGFWDTFRCLFPLLNLMYPSVNKEMQEGLINTYLESGFFPEWASPGHRGCMVGNNSASILVDAYMKGVKVDDIKTLYEGLIHGTENVHPEVSSTGRLGYEYYNKLGYVPYDVKINENAARTLEYAYDDWCIYRLAKELKRPKKEISLFAKRAMNYKNLFDKESKLMRGRNEDGTFQSPFSPLKWGDAFTEGNSWHYTWSVFHDPQGLIDLMGGKEMFVTMMDSVFAVPPIFDDSYYGQVIHAIREMTVMNMGNYAHGNQPIQHMIYLYDYAGQPWKAQYWLRQVMDRMYTPGPDGYCGDEDNGQTSAWYVFSALGFYPVCPGTDEYVMGTPLFKKATLHFENGNSLVIDAPNNSTENFYIDSMSFNGADHTKNYLRHEDLFKGGTIKVDMSNRPNLNRGTKEEDMPYSFSKE
kcat/Km [11]: 5.5 M⁻¹ s⁻¹ | kcat/Km [12]: 3.17 M⁻¹ s⁻¹ | kcat/Km [13]: 9330 M⁻¹ s⁻¹ | Km [14]: Not Active | kcat [14]: Not Active | Km [15]: 2.3 mM | kcat [15]: 0.00733 s⁻¹
